# According to the Human Domainome abundance scans (Beltran et al. 2025):
# ± gives the uncertainty stated by the source.
# B1: Tumor protein 63, residues 545 to 610; numbered along this chain, Q9H3D4 (parent)
# chain: TDCSIVSFLARLGCSSCLDYFTTQGLTTIYQIEHYSMDDLASLKIPEQFRHAIWKGILDHRQLHEF
# Variants of: B1
# Test: abundance fitness (aPCA) (normalised: wild type 0, dead -1); higher = more abundant; growth selection in yeast, the domain comes from the species named
# Conditions: Homo sapiens
row,Variant,abundance fitness
1,TDCSIVSFLCRLGCSSCLDYFTTQGLTTIYQIEHYSMDDLASLKIPEQFRHAIWKGILDHRQLHEF [A10C],-0.214 ± 0.029
2,TDCSIVSFLSRLGCSSCLDYFTTQGLTTIYQIEHYSMDDLASLKIPEQFRHAIWKGILDHRQLHEF [A10S],-0.104 ± 0.025
3,TDCSIVSFLIRLGCSSCLDYFTTQGLTTIYQIEHYSMDDLASLKIPEQFRHAIWKGILDHRQLHEF [A10I],-0.203 ± 0.027
4,TDCSIVSFLHRLGCSSCLDYFTTQGLTTIYQIEHYSMDDLASLKIPEQFRHAIWKGILDHRQLHEF [A10H],-0.16 ± 0.053
5,TDCSIVSFLLRLGCSSCLDYFTTQGLTTIYQIEHYSMDDLASLKIPEQFRHAIWKGILDHRQLHEF [A10L],-0.063 ± 0.037
6,TDCSIVSFLERLGCSSCLDYFTTQGLTTIYQIEHYSMDDLASLKIPEQFRHAIWKGILDHRQLHEF [A10E],-0.003 ± 0.061
7,TDCSIVSFLYRLGCSSCLDYFTTQGLTTIYQIEHYSMDDLASLKIPEQFRHAIWKGILDHRQLHEF [A10Y],-0.164 ± 0.029
8,TDCSIVSFLFRLGCSSCLDYFTTQGLTTIYQIEHYSMDDLASLKIPEQFRHAIWKGILDHRQLHEF [A10F],-0.167 ± 0.028
9,TDCSIVSFLTRLGCSSCLDYFTTQGLTTIYQIEHYSMDDLASLKIPEQFRHAIWKGILDHRQLHEF [A10T],-0.134 ± 0.065
10,TDCSIVSFLKRLGCSSCLDYFTTQGLTTIYQIEHYSMDDLASLKIPEQFRHAIWKGILDHRQLHEF [A10K],-0.092 ± 0.1
11,TDCSIVSFTARLGCSSCLDYFTTQGLTTIYQIEHYSMDDLASLKIPEQFRHAIWKGILDHRQLHEF [L9T],-1.04 ± 0.1
12,TDCSIVSFCARLGCSSCLDYFTTQGLTTIYQIEHYSMDDLASLKIPEQFRHAIWKGILDHRQLHEF [L9C],-0.344 ± 0.06
13,TDCSIVSFAARLGCSSCLDYFTTQGLTTIYQIEHYSMDDLASLKIPEQFRHAIWKGILDHRQLHEF [L9A],-1 ± 0.093
14,TDCSIVSFKARLGCSSCLDYFTTQGLTTIYQIEHYSMDDLASLKIPEQFRHAIWKGILDHRQLHEF [L9K],-1 ± 0.09
15,TDCSIVSFWARLGCSSCLDYFTTQGLTTIYQIEHYSMDDLASLKIPEQFRHAIWKGILDHRQLHEF [L9W],-0.955 ± 0.041
16,TDCSIVSFDARLGCSSCLDYFTTQGLTTIYQIEHYSMDDLASLKIPEQFRHAIWKGILDHRQLHEF [L9D],-0.474 ± 0.15
17,TDCSIVSFSARLGCSSCLDYFTTQGLTTIYQIEHYSMDDLASLKIPEQFRHAIWKGILDHRQLHEF [L9S],-0.869 ± 0.043
18,TDCSIVSFMARLGCSSCLDYFTTQGLTTIYQIEHYSMDDLASLKIPEQFRHAIWKGILDHRQLHEF [L9M],-0.272 ± 0.036
19,TDCSIVSFNARLGCSSCLDYFTTQGLTTIYQIEHYSMDDLASLKIPEQFRHAIWKGILDHRQLHEF [L9N],-0.814 ± 0.14
20,TDCSIVSFRARLGCSSCLDYFTTQGLTTIYQIEHYSMDDLASLKIPEQFRHAIWKGILDHRQLHEF [L9R],-0.83 ± 0.039
21,TDCSIVSFQARLGCSSCLDYFTTQGLTTIYQIEHYSMDDLASLKIPEQFRHAIWKGILDHRQLHEF [L9Q],-1.03 ± 0.11

row,Variant,abundance fitness
1,TDCSIVSFEARLGCSSCLDYFTTQGLTTIYQIEHYSMDDLASLKIPEQFRHAIWKGILDHRQLHEF [L9E],-0.666 ± 0.054
2,TDCSIVSFHARLGCSSCLDYFTTQGLTTIYQIEHYSMDDLASLKIPEQFRHAIWKGILDHRQLHEF [L9H],-1.02 ± 0.37
3,TDCSIVSFFARLGCSSCLDYFTTQGLTTIYQIEHYSMDDLASLKIPEQFRHAIWKGILDHRQLHEF [L9F],-0.626 ± 0.07
4,TDCSIVSFPARLGCSSCLDYFTTQGLTTIYQIEHYSMDDLASLKIPEQFRHAIWKGILDHRQLHEF [L9P],-0.928 ± 0.14
5,TDCSIVSFGARLGCSSCLDYFTTQGLTTIYQIEHYSMDDLASLKIPEQFRHAIWKGILDHRQLHEF [L9G],-0.622 ± 0.039
6,TDCSIVSFIARLGCSSCLDYFTTQGLTTIYQIEHYSMDDLASLKIPEQFRHAIWKGILDHRQLHEF [L9I],-0.421 ± 0.059
7,TDCSIVSFYARLGCSSCLDYFTTQGLTTIYQIEHYSMDDLASLKIPEQFRHAIWKGILDHRQLHEF [L9Y],-0.783 ± 0.12
8,TDCSIKSFLARLGCSSCLDYFTTQGLTTIYQIEHYSMDDLASLKIPEQFRHAIWKGILDHRQLHEF [V6K],0.009 ± 0.032
9,TDCSINSFLARLGCSSCLDYFTTQGLTTIYQIEHYSMDDLASLKIPEQFRHAIWKGILDHRQLHEF [V6N],-0.031 ± 0.028
10,TDCSIWSFLARLGCSSCLDYFTTQGLTTIYQIEHYSMDDLASLKIPEQFRHAIWKGILDHRQLHEF [V6W],-0.073 ± 0.027
11,TDCSIMSFLARLGCSSCLDYFTTQGLTTIYQIEHYSMDDLASLKIPEQFRHAIWKGILDHRQLHEF [V6M],-0.017 ± 0.027
12,TDCSIYSFLARLGCSSCLDYFTTQGLTTIYQIEHYSMDDLASLKIPEQFRHAIWKGILDHRQLHEF [V6Y],-0.11 ± 0.036
13,TDCSILSFLARLGCSSCLDYFTTQGLTTIYQIEHYSMDDLASLKIPEQFRHAIWKGILDHRQLHEF [V6L],-0.007 ± 0.029
14,TDCSIISFLARLGCSSCLDYFTTQGLTTIYQIEHYSMDDLASLKIPEQFRHAIWKGILDHRQLHEF [V6I],-0.034 ± 0.032
15,TDCSIPSFLARLGCSSCLDYFTTQGLTTIYQIEHYSMDDLASLKIPEQFRHAIWKGILDHRQLHEF [V6P],-0.077 ± 0.026
16,TDCSISSFLARLGCSSCLDYFTTQGLTTIYQIEHYSMDDLASLKIPEQFRHAIWKGILDHRQLHEF [V6S],0.003 ± 0.026
17,TDCSITSFLARLGCSSCLDYFTTQGLTTIYQIEHYSMDDLASLKIPEQFRHAIWKGILDHRQLHEF [V6T],0.016 ± 0.035
18,TDCSIRSFLARLGCSSCLDYFTTQGLTTIYQIEHYSMDDLASLKIPEQFRHAIWKGILDHRQLHEF [V6R],-0.012 ± 0.028
19,TDCSIGSFLARLGCSSCLDYFTTQGLTTIYQIEHYSMDDLASLKIPEQFRHAIWKGILDHRQLHEF [V6G],-0.032 ± 0.024
20,TDCSIFSFLARLGCSSCLDYFTTQGLTTIYQIEHYSMDDLASLKIPEQFRHAIWKGILDHRQLHEF [V6F],-0.06 ± 0.036
